Changes are numbered by the printed parent chain.
How the values were obtained:
cell growth = experiment: Comparison of cross-specific antibody to Cetuximab, MTT cell viability; type: cell-based; details: cell growth assay
Experimental: Antibodies were added to cells at concentration of 20 ug/ml and 40 ug/ml alone and in combination with chemotherapy treatment. Cell viability was assessed 72 hrs after treatment by MTT assay. ** indicates nt P<0.001. * indicates p<0.05.

[1] = system: colorectal cancer cell line LoVo; experiment: HBEGF ligand stimulated growth, MTT assay; type: cell-based
Experimental: Different concentrations of cross-specific antibody was preincubated with ligand for an hour before addition to cells. Cell viability was assessed 48 hrs after treatment by MTT assay.
(§1) Cell viability was assessed by 3-(4,5-dimethylthiazol-2-yl)-2,5-diphenyltetrazolium bromide (MTT, Sigma) assay (Mosmann, 1983). To assess chemotherapy/siRNA interactions 5000 cells were seeded per well on 96 well plate. After 24 hours cells were transfected with siRNA and treated with various chemotherapeutic agents at different concentrations. After 48 hours MTT (1.0 mg/ml) was added to each well and cells were incubated at 37° C. for 2 hours. The culture media was removed and formazan crystals were reabsorbed in 200 μl DMSO. Cell viability was determined by reading the absorbance of each well at 570 nm using a microplate reader (Tecan Sunrise, Biorad, UK).

[2] = system: pEGFR(Tyr1068) in MDA-MB231 cells; experiment: Ligand stimulated phosphorylation of EGFR, MDA-MB231; type: cell-based, human; details: antibody pre-incubated with recombinant HBEGF 1 hour, 20 mins stimulation
Experimental: (§2) Cells were serum starved before addition of antibody and ligand. Cross-specific antibody (8d7 1f6 2f7, i.e. “2F7”) was pre-incubated with recombinant HBEGF for 1 hour before addition to cells. Cells were stimulated for 20 mins before preparation of cell lysates. 30 μg of protein was loaded on SDS-PAGE gel and transferred to nitrocellulose membrane. The membrane was probed with anti pEGFR(Tyr^1068)
(§3) 1.5×10^6 cells were seeded in […] in media containing 10% serum. 24 hrs after seeding cells were serum starved for 4 hrs. Antibodies were preincubated for 1 hour with 30 ng/ml of recombinant HBEGF before being added to cells for 20 mins in 2% serum. Cells were washed 3 times in PBS containing phosphatase inhibitors and scraped. Cells were pelleted and lysed. Protein concentration was determined and 30 ug of protein ran on SDS-PAGE for western blot analysis. Blots were probed with pEGFR(Tyr^1068) antibody.

[3] = system: pEGFR(Tyr1068) in HCT116 cells; experiment: Ligand stimulated phosphorylation of EGFR, HCT116; type: cell-based, human; details: antibody pre-incubated with recombinant HBEGF 1 hour, 20 mins stimulation
Experimental: as §2, §3

[4] = system: pEGFR(Tyr 1068) in LoVo cells; experiment: Ligand stimulated phosphorylation of EGFR, LoVo; type: cell-based; details: antibody pre-incubated with recombinant HBEGF 1 hour, 20 mins stimulation
Experimental: Cells were serum starved before addition of antibody and ligand. Cross-specific antibody (8d7 1f6 2f7, i.e. “2F7”) was pre-incubated with recombinant HBEGF for 1 hour before addition to cells. Cells were stimulated for 20 mins before preparation of cell lysates. 30 μg of protein was loaded on SDS-PAGE gel and transferred to nitrocellulose membrane. The membrane was probed with anti pEGFR(Tyr 1068)
as §3

[5] = system: cancer cell proliferation; experiment: Cancer cell proliferation, cross-specific antibody alone or with cpt11, MTT assay; type: cell-based; details: 100 nM antibody in combination with 10 μM cpt11; MTT 72 hrs
Experimental: Cells were treated with 100 nM isotype control or 100 nM cross-specific antibody (8d7 1f6 2f7 i.e. “2F7” or 8d7 1f6 2b3 i.e. “2B3” alone or in combination with 10 μM cpt11. Cells were analysed by MTT assay after 72 hrs treatment. ** indicates statistically significant P<0.001. 2B3 RI value is 0.99 therefore an additive effect. 2F7 RI value is 1.1 therefore (slightly) synergistic.
as §1

`CCc1c2c(nc3ccc(OC(=O)N4CCC(N5CCCCC5)CC4)cc13)-c1cc3c(c(=O)n1C2)COC(=O)[C@]3(O)CC` [cpt-11, irinotecan] was tested. Which IC30 (cell growth) did it give?
The IC30 was 5 µM.

B1: Recombinant HBEGF: recombinant HBEGF ligand used to stimulate cell growth and EGFR phosphorylation (protein)
chain: DLQEADLDLLRVTLSSKPQALATPNKEEHGKRKKKGKGLGKKRDPCLRKYKDFCIHGECKYVKELRAPSCICHPGYHGERCHGLSL
With B1 as the molecule, how does the stimulation of growth ([1]; recombinant HBEGF ligand, MTT 48 hrs) read?
The stimulation of growth was “approximately 60%”.

B2: 8d7 1f6 2f7: cross-specific AREG/HBEGF murine monoclonal antibody; VH Sequence ID No: 7, VL Sequence ID No: 8 (antibody, listed as Mus musculus)
VH: MKCSWIIFFLMAVVTGVNSEVQLQQSGAELVRPGALVKLSCKASGFNIKDSYIHWVNQRPEQGLEWIGWIDPENGNTIYDPKFQGKASITADTSSNTAYLQLSSLTSEDTAVYYCVSASYRYGFSYWGQGTLVTVSAAKTTPPPVYPLAPGSL
VL: MRAPAQFLGLLVLWIPGAIGDIVMTQAAPSVPVTPGESVSISCRSNKSLLHTNGNTYLYWFLQRPGQSPQLLIYRMSNLASGVPDRFSGSGSGTAFTLRISRVEAEDVGVYYCMQHLEYPYTFGGGTKLEIKRADAAPTVSIFPPSSKLG
What does the source list for B2?
inhibition of HBEGF stimulated phosphorylation of EGFR [2]: inhibition of ligand stimulation phosphorylation of EGFR; inhibition of HBEGF stimulated phosphorylation of EGFR [3]: inhibition of ligand stimulation phosphorylation of EGFR; inhibition of HBEGF stimulated phosphorylation of EGFR [4]: inhibition of ligand stimulation phosphorylation of EGFR; RI value [5]: 1.1

B3: 8d7 1f6 2b3: cross-specific AREG/HBEGF murine monoclonal antibody; VH Sequence ID No: 9, VL Sequence ID No: 10 (antibody, listed as Mus musculus)
VH: B2 VH with I6V, I7M
VL: B2 VL with A3P, A5L, Q6S
With B3 as the molecule, how does the RI value [5] read?
The RI value was 0.99.

B4: 8d7 1c8 1e9: cross-specific AREG/HBEGF murine monoclonal antibody; VH Sequence ID No: 5, VL Sequence ID No: 6 (antibody, listed as Mus musculus)
VH: MEWSWVILFLMAVVTGVNSEVQLQQSGAELVRPGALVKLSCKASGFNIKDSYIHWVNQRPEQGLEWIGWIDPENGNTIYDPKFQGKASITADTSSNTAYLQLSSLTSEDTAVYYCVSASYRYGFSYWGQGTLVTVSAAKTTPPSVYPWVPGSLX
VL: XADXISISCRSNKSLLHTNGNTYLYWFLQRPGQSPQLLIYRMSNLASGVPDRFSGSGSGTAFTLRISRVEAEDVGVYYCMQHLEYPYTFGGGTKLEIKRXX
modifications: not fully specified; (154)..(154) Xaa can be any naturally occurring amino acid; (1)..(1) Xaa can be any naturally occurring amino acid
Which “effect on HBEGF stimulation of cell growth” value ([1]; 300 nM antibody) does the source give for B4 here?
Its value is “prevents any stimulation of cell growth by HBEGF”.

What about the “inhibition of ligand induced growth” value ([1]; different antibody concentrations pre-incubated with HBEGF 1 hr, MTT 48 hrs) of the same molecule?
Its value is “inhibit the ligand induced growth in a dose dependent manner”.
